# From paper PMC11805746 (Discover Nano, 2025)
# B1: methemoglobin (oxidized human hemoglobin A) (complex)
# chain 1: not shown
# chain 2: not shown
# Biological target: IsdB point mutant P173A (IsdB^P173A) (Staphylococcus aureus, UniProt Q2FZF0 41-613, P173A)
# Experiment: atomic force spectroscopy
binder,measurement,value
B1,koff,0.0025 s⁻¹
